Our source for the Kd values is PMC4942255, “MutSα maintains the mismatch repair capability by inhibiting PCNA unloading”.

Holding throughout (test): SPR; no nucleotide or Mg2+ listed in running buffer; n = 2; SPR (BIACORE 3000): 20 mM Hepes-NaOH pH 7.5, 100 mM NaCl, 1 mM DTT, 0.005% Tween-20; 20 μl/min, 3 min association and 3 min dissociation; temperature not stated
Conditions in all cases: protein: recombinant; tags: C-terminal FLAG on xMsh6; copies: 1;1; label: 3' biotin on strand 1; blunt, A:C mismatch (A at strand 1 position 22, C in strand 2)
(In general: SPR reads the build-up and loss of mass on a sensor chip optically.)

The target in data set [1] is xMutSα WT (xMsh2-xMsh6-FLAG) (Xenopus laevis, UniProt A0A1B4WRB1;A0A1B4WRB2 1-932;1-1340).
Sequence of xMutSα WT (xMsh2-xMsh6-FLAG) (chain, as listed by the source, chain 1 of 2): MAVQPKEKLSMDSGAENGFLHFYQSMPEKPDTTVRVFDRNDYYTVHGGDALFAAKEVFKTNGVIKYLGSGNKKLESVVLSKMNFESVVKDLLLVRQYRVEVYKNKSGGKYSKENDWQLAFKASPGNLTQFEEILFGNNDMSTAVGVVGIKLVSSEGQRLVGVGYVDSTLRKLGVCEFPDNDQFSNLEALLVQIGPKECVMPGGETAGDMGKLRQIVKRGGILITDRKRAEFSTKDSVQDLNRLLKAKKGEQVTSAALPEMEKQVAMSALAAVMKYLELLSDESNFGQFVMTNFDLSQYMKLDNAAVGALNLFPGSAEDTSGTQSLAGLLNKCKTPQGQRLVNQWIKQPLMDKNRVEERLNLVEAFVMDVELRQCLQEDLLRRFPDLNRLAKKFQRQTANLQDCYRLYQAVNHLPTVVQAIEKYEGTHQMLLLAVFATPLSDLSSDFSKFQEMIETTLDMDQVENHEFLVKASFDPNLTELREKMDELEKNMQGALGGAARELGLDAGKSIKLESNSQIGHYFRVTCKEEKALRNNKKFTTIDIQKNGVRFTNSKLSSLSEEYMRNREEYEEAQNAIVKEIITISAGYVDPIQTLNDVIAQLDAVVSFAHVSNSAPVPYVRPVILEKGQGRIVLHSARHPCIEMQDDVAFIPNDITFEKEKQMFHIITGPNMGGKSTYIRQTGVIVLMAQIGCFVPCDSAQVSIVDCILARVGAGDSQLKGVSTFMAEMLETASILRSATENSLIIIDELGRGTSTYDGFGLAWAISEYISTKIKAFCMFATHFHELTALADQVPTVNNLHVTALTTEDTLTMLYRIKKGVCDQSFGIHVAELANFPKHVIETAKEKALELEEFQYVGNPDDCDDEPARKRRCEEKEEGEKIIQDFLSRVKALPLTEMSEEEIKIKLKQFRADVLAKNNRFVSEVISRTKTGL
Sequence of xMutSα WT (xMsh2-xMsh6-FLAG) (chain, as listed by the source, chain 2 of 2): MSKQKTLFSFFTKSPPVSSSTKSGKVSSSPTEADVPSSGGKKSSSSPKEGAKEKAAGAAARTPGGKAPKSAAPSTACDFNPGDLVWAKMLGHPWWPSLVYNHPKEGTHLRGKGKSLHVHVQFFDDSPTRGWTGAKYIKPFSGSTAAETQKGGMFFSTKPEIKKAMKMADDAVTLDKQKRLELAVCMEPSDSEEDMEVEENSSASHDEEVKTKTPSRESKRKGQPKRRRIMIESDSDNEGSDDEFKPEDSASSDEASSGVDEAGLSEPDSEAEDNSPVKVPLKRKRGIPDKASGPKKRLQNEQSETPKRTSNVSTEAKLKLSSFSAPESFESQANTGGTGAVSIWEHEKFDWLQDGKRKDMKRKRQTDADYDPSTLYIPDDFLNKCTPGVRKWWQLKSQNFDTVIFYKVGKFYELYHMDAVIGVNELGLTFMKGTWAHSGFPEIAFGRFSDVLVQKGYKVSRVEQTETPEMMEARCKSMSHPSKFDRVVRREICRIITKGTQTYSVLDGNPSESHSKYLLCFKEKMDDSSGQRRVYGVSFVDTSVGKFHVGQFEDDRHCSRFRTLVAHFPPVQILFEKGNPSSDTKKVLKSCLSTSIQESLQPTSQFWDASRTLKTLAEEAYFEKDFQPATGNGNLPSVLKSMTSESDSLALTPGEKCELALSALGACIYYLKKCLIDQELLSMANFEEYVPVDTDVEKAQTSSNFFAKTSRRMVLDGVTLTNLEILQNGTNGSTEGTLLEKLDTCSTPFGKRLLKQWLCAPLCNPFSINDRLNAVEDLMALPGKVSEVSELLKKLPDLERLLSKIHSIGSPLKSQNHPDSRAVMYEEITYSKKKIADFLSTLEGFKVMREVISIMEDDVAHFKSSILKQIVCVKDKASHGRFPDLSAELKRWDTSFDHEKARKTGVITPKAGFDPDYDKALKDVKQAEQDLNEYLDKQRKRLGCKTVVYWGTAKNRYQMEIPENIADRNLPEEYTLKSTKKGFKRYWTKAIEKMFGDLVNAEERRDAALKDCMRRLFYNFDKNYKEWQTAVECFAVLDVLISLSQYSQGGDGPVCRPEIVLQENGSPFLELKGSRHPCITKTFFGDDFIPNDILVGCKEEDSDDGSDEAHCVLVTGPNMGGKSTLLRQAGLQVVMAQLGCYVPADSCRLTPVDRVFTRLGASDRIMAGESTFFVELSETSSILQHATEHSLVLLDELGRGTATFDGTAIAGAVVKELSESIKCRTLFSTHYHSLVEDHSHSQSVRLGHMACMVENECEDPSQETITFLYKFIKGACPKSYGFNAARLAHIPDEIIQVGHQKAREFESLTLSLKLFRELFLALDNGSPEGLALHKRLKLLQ
Data set [2] concerns the target xMutSα ΔN (xMsh2-xMsh6ΔN-FLAG) (Xenopus laevis, UniProt A0A1B4WRB1;A0A1B4WRB2 1-932;=M+324-1340, internal_change).
Data set [3] concerns the target xMutSα PIP (xMsh2-xMsh6PIP-FLAG) (Xenopus laevis, UniProt A0A1B4WRB1;A0A1B4WRB2 1-932;1-1340, Q4A;F10A;F11A).

Sequence of xMutSα ΔN (xMsh2-xMsh6ΔN-FLAG) (chain, as listed by the source | mutant, chain 1 of 2): as the sequence (chain, as listed by the source, chain 1 of 2) above
Sequence of xMutSα ΔN (xMsh2-xMsh6ΔN-FLAG) (chain, as listed by the source | mutant, chain 2 of 2): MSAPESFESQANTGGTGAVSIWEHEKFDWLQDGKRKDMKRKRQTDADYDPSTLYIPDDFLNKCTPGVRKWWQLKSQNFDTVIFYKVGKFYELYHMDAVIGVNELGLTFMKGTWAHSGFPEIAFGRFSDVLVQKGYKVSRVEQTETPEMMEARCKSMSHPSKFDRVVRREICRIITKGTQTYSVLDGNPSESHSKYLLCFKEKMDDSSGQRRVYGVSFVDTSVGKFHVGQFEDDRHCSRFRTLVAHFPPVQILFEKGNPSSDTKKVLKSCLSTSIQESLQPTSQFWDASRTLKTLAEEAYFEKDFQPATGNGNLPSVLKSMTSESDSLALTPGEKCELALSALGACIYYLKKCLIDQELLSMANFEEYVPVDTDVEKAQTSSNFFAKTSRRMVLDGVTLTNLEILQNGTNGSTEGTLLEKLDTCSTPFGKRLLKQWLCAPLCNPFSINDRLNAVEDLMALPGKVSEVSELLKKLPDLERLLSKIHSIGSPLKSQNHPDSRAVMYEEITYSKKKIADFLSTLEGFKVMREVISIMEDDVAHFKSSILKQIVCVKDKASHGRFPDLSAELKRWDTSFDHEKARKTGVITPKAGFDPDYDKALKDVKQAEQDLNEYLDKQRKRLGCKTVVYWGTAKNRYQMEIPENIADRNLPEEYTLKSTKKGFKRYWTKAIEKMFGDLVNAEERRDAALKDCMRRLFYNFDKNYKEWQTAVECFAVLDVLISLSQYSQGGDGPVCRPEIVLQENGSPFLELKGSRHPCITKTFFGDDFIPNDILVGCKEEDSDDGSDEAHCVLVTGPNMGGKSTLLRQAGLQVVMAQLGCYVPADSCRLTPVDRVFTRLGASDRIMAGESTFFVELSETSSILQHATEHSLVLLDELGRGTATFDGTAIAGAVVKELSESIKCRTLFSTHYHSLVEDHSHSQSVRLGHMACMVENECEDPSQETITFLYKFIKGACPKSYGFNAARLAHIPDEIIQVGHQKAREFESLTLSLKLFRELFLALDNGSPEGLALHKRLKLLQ

B1: 42 bp A:C mismatch oligo DNA (dsDNA)
DNA 1: GGGTGACCGTACTGCATCTCGAGATCCATGTTACTGCGTCAG
DNA 2: CTGACGCAGTAACATGGATCCCGAGATGCAGTACGGTCACCC
Regarding B1, the results for the dissociation constant Kd in data set [1], in data set [2] and in data set [3] were 2.2 nM, 3.6 nM and 4.4 nM, respectively.

The Kd is a measure of binding affinity in units of concentration.
